Values of other authors as cited in PMC11817637.

Legend:
RyR1 = RyR1 (UniProt P21817)
[1] = biological target: RyR1 (Oryctolagus cuniculus) (UniProt P11716)
Sequence of UniProt P11716 (P11716 whole entry): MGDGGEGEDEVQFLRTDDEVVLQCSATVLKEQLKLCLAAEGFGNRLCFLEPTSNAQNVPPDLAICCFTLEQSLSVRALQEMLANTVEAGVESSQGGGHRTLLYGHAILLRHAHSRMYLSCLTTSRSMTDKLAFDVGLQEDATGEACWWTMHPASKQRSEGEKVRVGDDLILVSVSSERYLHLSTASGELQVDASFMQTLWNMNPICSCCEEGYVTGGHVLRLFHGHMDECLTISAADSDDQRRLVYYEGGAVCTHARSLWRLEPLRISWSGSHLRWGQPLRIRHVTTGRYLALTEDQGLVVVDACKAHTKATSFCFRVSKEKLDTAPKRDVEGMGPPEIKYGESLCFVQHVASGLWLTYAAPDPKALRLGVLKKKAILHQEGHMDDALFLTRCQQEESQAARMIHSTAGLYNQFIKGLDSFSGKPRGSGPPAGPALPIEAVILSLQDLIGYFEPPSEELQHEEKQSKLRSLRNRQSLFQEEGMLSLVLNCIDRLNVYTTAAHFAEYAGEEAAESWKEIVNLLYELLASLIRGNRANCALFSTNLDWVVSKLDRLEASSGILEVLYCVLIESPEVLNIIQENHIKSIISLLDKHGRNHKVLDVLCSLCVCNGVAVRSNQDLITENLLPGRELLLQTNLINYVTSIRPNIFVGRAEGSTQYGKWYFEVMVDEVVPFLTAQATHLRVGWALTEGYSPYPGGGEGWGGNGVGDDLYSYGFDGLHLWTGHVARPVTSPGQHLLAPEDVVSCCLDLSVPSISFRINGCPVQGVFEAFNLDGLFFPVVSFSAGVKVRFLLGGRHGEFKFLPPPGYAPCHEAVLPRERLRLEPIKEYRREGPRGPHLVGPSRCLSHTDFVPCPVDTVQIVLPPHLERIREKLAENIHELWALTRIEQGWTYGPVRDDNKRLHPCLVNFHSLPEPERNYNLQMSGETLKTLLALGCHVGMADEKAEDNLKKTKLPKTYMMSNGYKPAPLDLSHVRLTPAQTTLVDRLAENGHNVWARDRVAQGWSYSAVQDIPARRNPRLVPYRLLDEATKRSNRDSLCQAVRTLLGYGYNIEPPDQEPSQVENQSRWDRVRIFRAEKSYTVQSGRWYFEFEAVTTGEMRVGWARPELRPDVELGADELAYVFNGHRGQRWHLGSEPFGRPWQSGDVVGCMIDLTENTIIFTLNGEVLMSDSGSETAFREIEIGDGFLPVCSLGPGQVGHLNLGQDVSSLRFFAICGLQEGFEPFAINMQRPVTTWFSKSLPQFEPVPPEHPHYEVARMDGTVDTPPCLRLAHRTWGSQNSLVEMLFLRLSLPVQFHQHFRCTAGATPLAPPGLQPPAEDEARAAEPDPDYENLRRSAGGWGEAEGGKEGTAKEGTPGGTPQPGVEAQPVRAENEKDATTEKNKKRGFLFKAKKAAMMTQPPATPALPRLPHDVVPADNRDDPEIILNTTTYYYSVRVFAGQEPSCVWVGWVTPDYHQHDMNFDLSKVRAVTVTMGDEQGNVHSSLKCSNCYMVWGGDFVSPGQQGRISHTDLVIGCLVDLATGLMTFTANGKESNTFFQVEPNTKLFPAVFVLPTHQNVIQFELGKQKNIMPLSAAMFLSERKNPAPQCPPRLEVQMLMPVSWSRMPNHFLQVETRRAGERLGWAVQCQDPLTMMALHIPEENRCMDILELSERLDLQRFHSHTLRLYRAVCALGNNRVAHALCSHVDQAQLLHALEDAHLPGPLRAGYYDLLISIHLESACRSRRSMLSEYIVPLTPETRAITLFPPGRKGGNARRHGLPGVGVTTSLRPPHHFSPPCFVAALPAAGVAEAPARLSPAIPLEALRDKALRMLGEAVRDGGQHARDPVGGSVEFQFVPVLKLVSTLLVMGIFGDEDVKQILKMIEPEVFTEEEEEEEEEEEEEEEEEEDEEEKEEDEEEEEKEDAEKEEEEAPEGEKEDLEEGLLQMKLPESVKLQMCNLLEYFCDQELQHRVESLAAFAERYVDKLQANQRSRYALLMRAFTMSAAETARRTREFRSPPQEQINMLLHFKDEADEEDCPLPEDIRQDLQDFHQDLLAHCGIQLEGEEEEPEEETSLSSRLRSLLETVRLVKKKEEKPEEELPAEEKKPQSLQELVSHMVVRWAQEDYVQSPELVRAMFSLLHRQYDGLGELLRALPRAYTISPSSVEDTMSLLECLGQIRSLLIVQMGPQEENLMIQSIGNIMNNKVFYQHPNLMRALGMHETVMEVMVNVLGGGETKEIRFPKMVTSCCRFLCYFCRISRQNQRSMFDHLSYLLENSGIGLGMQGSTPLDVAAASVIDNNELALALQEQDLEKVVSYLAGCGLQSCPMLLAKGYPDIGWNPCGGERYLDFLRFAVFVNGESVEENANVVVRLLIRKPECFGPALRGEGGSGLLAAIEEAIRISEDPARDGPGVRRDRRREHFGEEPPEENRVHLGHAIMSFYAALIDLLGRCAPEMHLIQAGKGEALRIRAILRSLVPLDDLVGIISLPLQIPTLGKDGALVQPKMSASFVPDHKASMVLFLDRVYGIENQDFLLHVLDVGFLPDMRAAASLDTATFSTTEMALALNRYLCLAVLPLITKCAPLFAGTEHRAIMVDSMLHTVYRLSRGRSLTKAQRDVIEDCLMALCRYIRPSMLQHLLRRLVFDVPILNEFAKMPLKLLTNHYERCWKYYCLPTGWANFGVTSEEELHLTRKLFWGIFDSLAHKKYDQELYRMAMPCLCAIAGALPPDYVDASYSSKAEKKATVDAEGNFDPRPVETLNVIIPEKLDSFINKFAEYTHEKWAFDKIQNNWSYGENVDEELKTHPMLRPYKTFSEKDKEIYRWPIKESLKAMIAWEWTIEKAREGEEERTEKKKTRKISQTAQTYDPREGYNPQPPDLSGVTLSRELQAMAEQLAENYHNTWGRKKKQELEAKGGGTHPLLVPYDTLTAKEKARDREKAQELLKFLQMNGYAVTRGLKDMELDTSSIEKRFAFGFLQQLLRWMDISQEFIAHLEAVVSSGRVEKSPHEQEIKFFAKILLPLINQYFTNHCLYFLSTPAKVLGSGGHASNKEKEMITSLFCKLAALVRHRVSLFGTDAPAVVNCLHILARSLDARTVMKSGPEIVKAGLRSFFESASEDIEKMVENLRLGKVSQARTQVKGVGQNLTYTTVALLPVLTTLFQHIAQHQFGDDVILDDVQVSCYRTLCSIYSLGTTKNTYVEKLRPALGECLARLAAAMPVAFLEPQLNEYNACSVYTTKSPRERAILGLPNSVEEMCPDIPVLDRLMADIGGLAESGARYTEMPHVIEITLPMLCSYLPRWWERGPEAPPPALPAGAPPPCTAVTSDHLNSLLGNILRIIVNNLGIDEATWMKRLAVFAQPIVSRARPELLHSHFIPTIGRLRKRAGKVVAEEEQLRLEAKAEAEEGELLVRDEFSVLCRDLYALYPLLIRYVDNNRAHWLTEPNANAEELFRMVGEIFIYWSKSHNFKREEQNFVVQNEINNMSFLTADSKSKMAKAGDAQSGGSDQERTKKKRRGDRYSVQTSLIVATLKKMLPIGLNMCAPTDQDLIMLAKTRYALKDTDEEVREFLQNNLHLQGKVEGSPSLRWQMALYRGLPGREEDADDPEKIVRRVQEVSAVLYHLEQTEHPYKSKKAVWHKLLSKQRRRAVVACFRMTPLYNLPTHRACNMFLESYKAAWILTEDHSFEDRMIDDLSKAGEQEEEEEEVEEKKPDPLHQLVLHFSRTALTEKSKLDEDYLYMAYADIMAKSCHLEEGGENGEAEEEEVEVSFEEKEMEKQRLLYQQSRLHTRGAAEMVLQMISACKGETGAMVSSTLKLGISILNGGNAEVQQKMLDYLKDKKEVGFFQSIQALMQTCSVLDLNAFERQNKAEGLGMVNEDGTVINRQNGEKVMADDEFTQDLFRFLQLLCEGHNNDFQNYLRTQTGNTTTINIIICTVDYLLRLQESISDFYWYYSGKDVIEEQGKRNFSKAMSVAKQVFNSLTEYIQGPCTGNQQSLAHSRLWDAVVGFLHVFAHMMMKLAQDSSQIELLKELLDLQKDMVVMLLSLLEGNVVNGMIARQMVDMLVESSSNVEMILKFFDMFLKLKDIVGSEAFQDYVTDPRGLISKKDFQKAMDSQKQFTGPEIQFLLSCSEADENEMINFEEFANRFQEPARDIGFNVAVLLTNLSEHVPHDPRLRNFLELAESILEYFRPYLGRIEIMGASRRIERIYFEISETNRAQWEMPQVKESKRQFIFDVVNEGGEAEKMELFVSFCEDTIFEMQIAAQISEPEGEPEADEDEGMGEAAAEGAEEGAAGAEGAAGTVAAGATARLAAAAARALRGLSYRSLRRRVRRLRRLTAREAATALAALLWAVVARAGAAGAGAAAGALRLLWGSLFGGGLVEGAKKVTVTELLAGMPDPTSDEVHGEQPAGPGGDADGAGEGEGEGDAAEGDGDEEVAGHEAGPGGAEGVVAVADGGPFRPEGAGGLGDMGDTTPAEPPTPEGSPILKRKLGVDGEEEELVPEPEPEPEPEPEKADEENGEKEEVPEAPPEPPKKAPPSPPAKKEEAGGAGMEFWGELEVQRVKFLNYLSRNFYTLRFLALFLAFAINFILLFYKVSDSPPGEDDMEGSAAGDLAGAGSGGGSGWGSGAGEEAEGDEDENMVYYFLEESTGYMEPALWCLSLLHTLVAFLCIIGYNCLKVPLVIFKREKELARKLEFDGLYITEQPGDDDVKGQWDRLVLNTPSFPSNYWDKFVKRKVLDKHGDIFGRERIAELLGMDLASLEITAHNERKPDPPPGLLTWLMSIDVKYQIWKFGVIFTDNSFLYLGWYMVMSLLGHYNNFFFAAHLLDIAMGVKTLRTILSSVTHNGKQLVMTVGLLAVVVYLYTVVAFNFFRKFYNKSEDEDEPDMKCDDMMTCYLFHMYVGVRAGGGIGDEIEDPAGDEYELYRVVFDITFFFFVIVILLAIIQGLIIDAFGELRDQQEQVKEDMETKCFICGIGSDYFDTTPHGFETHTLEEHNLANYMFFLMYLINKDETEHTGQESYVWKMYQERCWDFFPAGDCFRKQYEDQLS

Kd (RyR1)	Kd [1]	Substance
100 nM	–	FKBP12 (from UniProt P62942)
–	2.6 nM	FKBP12 (from UniProt P62943)
